Our source for the protein stability index values is the supplement of paper PMC10567573.

B1: MFF (parent)
chain: DDLTVVDAASLRRQIIKLNRRLQL
B2: TRIM63 (parent)
chain: QEKKLSFIEALIQQYQEQLDKSTK
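Note: lentivirally expressed fusions sorted by FACS into six bins by GFP to DsRed ratio, PSI derived from sequencing read proportions per bin multiplied by bin number.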

In the first data set the parent is B1. Nature of the data set: protein stability index of a GFP-peptide fusion (GPS, HEK-293T) (PSI 1-6); higher = more stable. The settings on record: c terminus: a fixed tail appended.
Take GDLTVVDAASLRRQIIKLNRRLQL: the protein stability index was found to be 2.17.

In the case of CDLTVVDAASLRRQIIKLNRRLQL, the protein stability index was determined as 2.04.

For FDLTVVDAASLRRQIIKLNRRLQL, the protein stability index came out at 2.42.

Turning to ADLTVVDAASLRRQIIKLNRRLQL, the protein stability index is 2.08.

With EDLTVVDAASLRRQIIKLNRRLQL, the protein stability index was 1.67.

Consider HDLTVVDAASLRRQIIKLNRRLQL, for which the protein stability index is 1.84.

In the next data set the parent is B2. The data set is described as above. The note with it: c terminus: a fixed tail appended.
In the case of QEKKLSFIEALIQQYQEQLDKSTR, the protein stability index came out at 1.84.

On to QEKKLSFIEALIQQYQEQLDKSTA, for which the protein stability index turned out to be 2.25.

As for QEKKLSFIEALIQQYQEQLDKSTH, the protein stability index came out at 2.95.

Consider QEKKLSFIEALIQQYQEQLDKSTC, for which the protein stability index was 2.99.

Take QEKKLSFIEALIQQYQEQLDKSTT: the protein stability index was determined as 2.67.

Consider QEKKLSFIEALIQQYQEQLDKSTM, for which the protein stability index was determined as 2.32.

Take QEKKLSFIEALIQQYQEQLDKSTD: the protein stability index came out at 3.66.

For QEKKSSFIEALIQQYQEQLDKSTK, the protein stability index was 3.95.

For QEKKFSFIEALIQQYQEQLDKSTK, the protein stability index amounted to 2.91.

QEKKGSFIEALIQQYQEQLDKSTK: the protein stability index came out at 3.91.

With QEKKHSFIEALIQQYQEQLDKSTK, the protein stability index was 2.9.

In the case of QEKKASFIEALIQQYQEQLDKSTK, the protein stability index was determined as 4.08.

In the case of QEKKPSFIEALIQQYQEQLDKSTK, the protein stability index amounted to 3.58.

As for QEKKQSFIEALIQQYQEQLDKSTK, the protein stability index came to 3.34.

QEKKMSFIEALIQQYQEQLDKSTK: the protein stability index came to 2.38.

Turning to QEKKLSFIEALIQQYQEQLDPSTK, the protein stability index was 1.99.

QEKKLSFIEALIQQYQEQLDASTK: the protein stability index turned out to be 2.92.

Regarding QEKKLSFIEALIQQYQEQLDWSTK, the protein stability index is 1.63.

Take QEKKLSFIEALIQQYQEQLDTSTK: the protein stability index was found to be 1.75.

On to QEKKLSFIEALIQQYQEQLDYSTK, for which the protein stability index was found to be 2.1.

As to QEKKLSFIEALIQQYQEQLDDSTK, the protein stability index was found to be 3.76.

Turning to QEKKLSFIEALIQQYQEQLDMSTK, the protein stability index is 2.27.

As for QEKKLSFIEALIQQYQEQLDQSTK, the protein stability index was found to be 3.

On to QEKKLSFIEALIQQYQEQLDESTK, for which the protein stability index amounted to 3.26.

For the variant QEKKLSFIEALIQQYQEQLDISTK, the protein stability index came to 2.86.

In the case of QEKKLSFIEALIQQYQEQLDKMTK, the protein stability index stood at 2.65.

Turning to QEKKLSFIEALIQQYQEQLDKRTK, the protein stability index came out at 1.98.

QEKKLSFIEALIQQYQEQLDKATK: the protein stability index was found to be 2.23.

For QEKKLSFIEALIQQYQEQLDKITK, the protein stability index worked out at 2.74.

For QEKKLSFIEALIQQYQEQLDKCTK, the protein stability index turned out to be 2.26.

Turning to QEKKLSFIEALIQQYQEQLDKDTK, the protein stability index amounted to 3.1.

In the case of QEKKLSQIEALIQQYQEQLDKSTK, the protein stability index was determined as 4.05.

With QEKKLSDIEALIQQYQEQLDKSTK, the protein stability index was determined as 4.53.

Consider QEKKLSTIEALIQQYQEQLDKSTK, for which the protein stability index came to 3.98.

Regarding QEKKLSWIEALIQQYQEQLDKSTK, the protein stability index was determined as 4.19.

As to QEKKLSSIEALIQQYQEQLDKSTK, the protein stability index was found to be 4.28.

For the variant QEKKLSHIEALIQQYQEQLDKSTK, the protein stability index turned out to be 4.2.

In the case of QEKKLSLIEALIQQYQEQLDKSTK, the protein stability index came out at 3.06.

Turning to QEKKLSEIEALIQQYQEQLDKSTK, the protein stability index was 4.38.

With QEKKLSAIEALIQQYQEQLDKSTK, the protein stability index is 4.05.

For QEKKLSYIEALIQQYQEQLDKSTK, the protein stability index amounted to 2.48.

Consider QEKKLSFIEALIQQYQEQLWKSTK, for which the protein stability index was determined as 1.83.

In the case of QEKKLSFIEALIQQYQEQLGKSTK, the protein stability index is 2.13.

With QEKKLSFIEALIQQYQEQLNKSTK, the protein stability index was found to be 2.08.

In the case of QEKKLSFIEALIQQYQEQLQKSTK, the protein stability index was 1.92.

As to QEKKLSFIEALIQQYQEQLYKSTK, the protein stability index stood at 1.48.

With QEKKLSFIEALIQQYQEQLVKSTK, the protein stability index was determined as 1.2.

For QEKKLSFIEALIQQYQEQLTKSTK, the protein stability index is 2.47.

Turning to QEKKLSFIEALIQQYQEQLLKSTK, the protein stability index was 1.72.

As for QEKKLSFIEALIQQYQEQLCKSTK, the protein stability index was determined as 1.69.

Turning to QEKKLSFIEALIQQAQEQLDKSTK, the protein stability index was 2.61.

Take QEKKLSFIEALIQQQQEQLDKSTK: the protein stability index turned out to be 3.87.

For QEKKLSFIEALIQQGQEQLDKSTK, the protein stability index was 4.41.

For the variant QEKKLSFIEALIQQSQEQLDKSTK, the protein stability index amounted to 3.52.

QEKKLSFIEALIQQWQEQLDKSTK: the protein stability index is 1.

As for QEKKLSFIEALIQQIQEQLDKSTK, the protein stability index stood at 2.1.

For QEKKLSFIEALIQQKQEQLDKSTK, the protein stability index came out at 3.9.

Take QEKKLSFIEALIQQCQEQLDKSTK: the protein stability index turned out to be 2.1.

For the variant QEKKLSFIEALIQQHQEQLDKSTK, the protein stability index is 3.38.

In the case of QEKKLSFIEALIQQRQEQLDKSTK, the protein stability index was 4.63.

QEKKLSFIEALIQQNQEQLDKSTK: the protein stability index came to 3.75.

For the variant QEKKLSFIEALIQQTQEQLDKSTK, the protein stability index worked out at 2.98.

For the variant QEKKLSFIMALIQQYQEQLDKSTK, the protein stability index turned out to be 2.22.

As for QEKKLSFIPALIQQYQEQLDKSTK, the protein stability index worked out at 3.96.

With QEKKLSFIFALIQQYQEQLDKSTK, the protein stability index was found to be 1.8.

Consider QEKKLSFIAALIQQYQEQLDKSTK, for which the protein stability index was 1.93.

QEKKLSFISALIQQYQEQLDKSTK: the protein stability index was 2.68.

For the variant QEKKLSFILALIQQYQEQLDKSTK, the protein stability index turned out to be 1.39.

QEKKLSFINALIQQYQEQLDKSTK: the protein stability index came to 2.64.

For QEKKLSFIVALIQQYQEQLDKSTK, the protein stability index was 1.7.

Regarding QEKKLSFIIALIQQYQEQLDKSTK, the protein stability index stood at 2.06.

For the variant QEKKLSFIEALIQQYAEQLDKSTK, the protein stability index is 2.5.

Turning to QEKKLSFIEALIQQYSEQLDKSTK, the protein stability index was found to be 2.41.

Turning to QEKKLSFIEALIQQYREQLDKSTK, the protein stability index came to 2.38.

As for QEKKLSFIEALIQQYHEQLDKSTK, the protein stability index is 2.57.

For the variant QEKKLSFIEALIQQYFEQLDKSTK, the protein stability index came to 2.07.

Regarding QEKKLSFIEALIWQYQEQLDKSTK, the protein stability index was determined as 1.32.

On to QEKKLSFIEALIKQYQEQLDKSTK, for which the protein stability index is 2.64.

Regarding QEKKLSFIEALIEQYQEQLDKSTK, the protein stability index was 3.54.

As for QEKKLSFIEALIAQYQEQLDKSTK, the protein stability index amounted to 2.46.

Consider QEKKLSFIEALIMQYQEQLDKSTK, for which the protein stability index worked out at 2.02.

Consider QEKKLSFIEALIDQYQEQLDKSTK, for which the protein stability index turned out to be 3.54.

As to QEKKLSFIEALILQYQEQLDKSTK, the protein stability index was 2.1.

As for QEKKLSFIEALIYQYQEQLDKSTK, the protein stability index was 2.35.

Consider TEKKLSFIEALIQQYQEQLDKSTK, for which the protein stability index was 2.23.

As for PEKKLSFIEALIQQYQEQLDKSTK, the protein stability index amounted to 2.39.

On to IEKKLSFIEALIQQYQEQLDKSTK, for which the protein stability index was determined as 2.03.

With GEKKLSFIEALIQQYQEQLDKSTK, the protein stability index was 2.31.
